# Results: patent US5456909A, “Glycoform fractions of recombinant soluble complement receptor 1 (sCR1) having extended half-lives in vivo” (T Cell Sciences, Inc., priority 1992, dated 1995)
# Key:
# [1] = tested on: complement-mediated lysis of antibody coated SRBC; assay: Inhibition of complement-mediated hemolysis of antibody-sensitized SRBC in vitro; type: cell-based, human
# Description: (§1) SRBC presensitized with rabbit anti-SRBC antibody (Diamedix, Miami, Fla.) were mixed in a V-bottom microtiter wells (Costar, Cambridge, Mass.) with an appropriate dilution of the test plasma and an aliquot of diluted human serum as a complement source. After incubation, 37° C., 1 hour, the unlysed red cells were pelleted by centrifugation, the supernatant transferred to corresponding flat bottom microwells (Costar, Cambridge, Mass.), and absorbance at 415 nm measured. Inhibition of complement-mediated lysis of the antibody coated SRBC was measured as a reduction in the absorbance in the presence of test sample.
# A range of dilutions of TP10HD or TP10HD glycoform spanning 7.8 to 1000 ng/ml was examined for each sample.
# [2] = Pharmacokinetic studies 1, 4, 5, 7, 9: iv clearance of 125I-labelled TP10HD preparations in rats; type: in vivo, Sprague-Dawley rats; details: 1 mg/kg
# Description: In Studies 1, 2, 4, 5, 7 and 9, Iodination was carried out by the chloramine-T procedure. Sodium phosphate buffer, 0.5M, pH 7.6, 50 μl, was added to 1 mCi of Na-^125 I (New England Nuclear, Boston, Mass.) as supplied. The sample of TP10HD, typically 100 μg in 100 μl (Study 5=69 μg; Study 7=34 μg; Study 9=91 μg), was added followed by 50 μl of a 15 mg/ml solution of freshly prepared chloramine-T. The reaction mixture was vigorously shaken for 60 seconds. Sodium metabisulfite (50 μl, 15 mg/ml) and sodium iodide (100 μl, 10 mg/ml) were successively pipetted into the reaction vial. The reaction mixture was passed onto a PD10 column (Pharmacia Fine Chemicals, Piscataway, N.J.), pre-equilibrated with phosphate buffered saline, pH 7.2-7.4, containing 0.1% bovine serum albumin (Sigma Chemical Company, St. Louis, Mo.). Ten 0.5 ml fractions were collected and 2 μl aliquots were counted directly and after combining with 100 μl of a 0.1% bovine serum albumin solution and 1 ml of 20% trichloroacetic acid. After incubation at 0° C. for 1 hour, the acid-precipitable protein associated radioactivity was collected by centrifugation for 10 minutes at 1000×g and quantitated by scintillation counting. Fractions containing >90% of the total radioactivity in the acid precipitate were pooled for further use.
# Study 1: Radioiodinated TP10HD-CX was mixed with purified unlabeled TP10HD-CX to yield a dosing solution suitable for administering a 1 mg/kg total TP10HD dose containing 16-25×10^6 cpm of radiolabeled TP10HD-CX.
# Study 4: Radioiodinated TP10HD-CC was mixed with purified unlabeled TP10HD-CC to yield a dosing solution suitable for administering a 1 mg/kg or a 3 mg/kg total TP10HD dose containing ~20×10^6 cpm.
# Study 5: Radioiodinated TP10HD-CCW was mixed with purified unlabeled TP10HD-CCW to yield a dosing solution suitable for administering a 1 mg/kg total TP10HD dose containing ~20×10^6 cpm.
# Study 7: Radiolabeled TP10HD-CCS was mixed with purified unlabeled TP10HD-CCS to yield a dosing solution suitable for administering a 1 mg/kg total TP10HD dose containing ~20×10^6 cpm.
# Study 9: Radioiodinated TP10HD-CXD was mixed with purified unlabeled TP10HD-CXD to yield a dosing solution suitable for administering a 1 mg/kg total TP10HD dose containing ~20~10^6 cpm.
# In Studies 1, 4, 5, 7 and 9, test material was injected intravenously (iv) into four Sprague-Dawley rats (2 male, 2 female). Blood samples were obtained from the retroorbital plexus at 1, 3, 5, 10, 20, 30, 45, and 60 minutes post injection, and the radioactivity determined. Additional post infusion blood samples were taken at 2, 3, and 4 hours postinjection (STUDY 4) and at 120 minutes (STUDY 5). The plasma fraction of the remaining blood sample was retained for further analysis.
# Plasma samples were analyzed for residual test material by measuring:
# (1) total residual radioactivity;
# (2) percentage of radiolabeled material precipitated with TCA;
# (3) residual acid precipitable radioactivity in the presence of SDS; and
# (4) material immunologically identifiable in an enzyme immunoassay as TP10HD.
# Radioisotope data was quantitated as total cpm/ml blood or plasma and as the percentage of a theoretical time zero value. Pharmacokinetic half-life was calculated from the radiometric data.
# In Study 9, removal of N-linked oligosaccharide chains was performed by n-glycanase digestion, performed according to manufacturer's instructions (Genzyme Corporation, Boston, Mass.). Typically, 58 μg TP10HD-CX was incubated with 10.5 units of n-glycanase for 18 hours, 37° C., in 0.2M sodium phosphate, pH 8.6 buffer.
# Precipitation with trichloroacetic acid was performed as follows: Plasma (20 μl) was precipitated by sequential addition of 450μl of 0.13M Tris HCl, 4% SDS, 10% glycerol, pH 6.8 buffer, followed by 30 μl of fetal bovine serum and 500μl of 20% trichloroacetic acid. […]
# [3] = Isoelectric point by chromatofocusing (Mono P, pH 7.1 to 4.0); type: physicochemical; details: chromatofocusing
# Description: Chromatofocusing is a method of separating isoforms of proteins according to their isoelectric point, pI, using an ion exchange column and a pH gradient created with amphoteric buffers of different pH. In this study, analysis of the TP10HD preparations was performed using a pH gradient of 7.1 to 4.0. The chromatographic resin was Mono P, Hr5/5 (Pharmacia Fine Chemicals, Piscataway, N.J.); the starting buffer was 0.025M Bis/Tris titrated to pH 7.1 with saturated iminodiacetic acid; the eluant was polybuffer 7-4 (Pharmacia Fine Chemicals, Piscataway, N.J.) diluted 1:10 (v/v) with water and adjusted to pH 4.0 with HCl; cleaning buffer was 2M NaCl in water. The experimental conditions were chosen to yield a linear pH gradient of 7.1 to 4.0 units.
# [4] = Pharmacokinetic study 2: iv TP10HD-CX in rabbits, residual functional activity by hemolysis inhibition; type: in vivo, Dutch rabbits; details: for Peak (t = O) conc / Serum half-life / Total Clearance / Volume of Distribution: iv, 1 mg/kg
# Description: Study 2: Radioiodinated TP10HD-CX, ~5% w/w, was mixed with purified TP10HD-CX to yield a dosing solution containing 1 mg/ml TP10HD-CX in 0.1M Hepes, 0.15M NaCl, pH 7.4 buffer.
# In Study 2, test material was injected iv into two groups of five male Dutch rabbits (approximately 1 kg) at a dose of 1 mg/kg. Blood samples, 2 ml, were taken from an ear artery immediately pre-dosing and at 5, 10, 20, 45, 60, 120, and 180 minutes, and mixed with heparin (final concentration 25 μg/ml). Radioactivity was determined in an aliquot by scintillation counting, and the plasma, obtained by centrifugation at 2000×g for 5 minutes, was stored at -40° C.
# Plasma samples were analyzed for residual test material by an in vitro functional assay, inhibition of hemolysis of antibody coated sheep red blood cells (SRBC) by human complement. Pharmacokinetic half-life was calculated from the titer of the residual functional activity.
# Rabbit plasma samples were heated at 56° C. for 1 hour in the presence of methylamine (12.5 mM) in order to amidate thioester groups and to inactivate endogenous complement components C3 and C4. […] Test samples were then diluted 1:50 with 0.1 Hepes, 0.15M NaCl, pH 7.4 buffer and assayed.
# as §1, with “sample. Standard curves with known quantities of TP10HD can be used to calibrate the assay so that results can be expressed as mg/ml TP10HD remaining in the plasma versus time.” for “sample.”
# [5] = in vivo
# Description: Plasma pharmacokinetic half-lives and/or clearance rates of different glycoform preparations were determined.
# iC3 = details: produced in presence of tunicamycin; cited from earlier work
# [6] = tested on: reversed passive Arthus reaction; details: in vivo; cited from earlier work
# [7] = tested on: post-ischemic myocardial inflammation and necrosis; details: in vivo; cited from earlier work
# [8] = in vivo; cited from earlier work
substance,measurement,setting,value
TP10HD-CX: TP10HD produced by cells cultured in a hollow fiber bioreactor and purified by HPLC cation exchange chromatography,IH50 (concentration giving 50% inhibition of hemolysis),"[1]; SRBC, human serum as complement source",20 ± 7 ng/mL
same,α phase half-life,[2],4.3 min
same,β phase half-life,[2],167 min
same,"average pI, in words",[3],higher average pI than TP10HD-CC
same,pI of minor isoforms,[3]; smaller quantities / minor component,≤ 5.0
same,α phase half-life,"[4]; Study 2, iv, 1 mg/kg (Table 3 summary)",9 to 11 min
same,Peak (t = O) conc,[4]; Group 1,16.5 ± 2.4 µg/mL
same,Serum half-life,[4]; Group 1,9.1 ± 1.4 min
same,Total Clearance,[4]; Group 1,5.8 ± 1.2 mL/min/kg
same,Volume of Distribution,[4]; Group 1,67.0 ± 9.0 mL/kg
same,Peak (t = O) conc,[4]; Group 2,23.7 ± 1.7 µg/mL
same,Serum half-life,[4]; Group 2,11.1 ± 1.2 min
same,Total Clearance,[4]; Group 2,2.9 ± 0.1 mL/min/kg
same,Volume of Distribution,[4]; Group 2,44.6 ± 3.7 mL/kg
TP10HD-CXD: TP10HD-CX enzymatically deglycosylated with n-glycanase,"plasma half-life / clearance, in words",[5],cleared rapidly
same,IH50 (concentration giving 50% inhibition of hemolysis),[1]; comparison before and after deglycosylation,40 ng/mL
same,α phase half-life,[2],< 1 min
same,β phase half-life,[2],6.1 min
non-glycosylated form of CR1: non-glycosylated form of CR1 produced in the presence of tunicamycin,binding to iC3,iC3,reduced binding to iC3
"sCR1/pBSCR1c: soluble CR1 construct containing LHR-A, LHR-B, LHR-C, LHR-D, SCR29, SCR30 regions up to and including the first alanine residue of the transmembrane region",activity in reversed passive Arthus reaction,[6],demonstrated in vivo activity
same,post-ischemic myocardial inflammation and necrosis,[7],suppressed post-ischemic myocardial inflammation and necrosis
same,survival rates following transplantation,[8],extended survival rates following transplantation
